Square brackets hold non-standard residues; d marks the D form. Ends that are not written are not given here.

This assay has as its target T1, mouse ADAMTS7 (Mus musculus, UniProt Q68SA9).
T1 construct: Full-length mouse Adamts7 1-1857 (Uniprot Q68SA9, WT or E373Q catalytic mutant); expressed in transfected cells; host or cells: Human Coronary Artery Smooth Muscle Cells (HCA-SMC, Lonza), adenovirus 50 MOI
T1 sequence (Q68SA9 221-1657): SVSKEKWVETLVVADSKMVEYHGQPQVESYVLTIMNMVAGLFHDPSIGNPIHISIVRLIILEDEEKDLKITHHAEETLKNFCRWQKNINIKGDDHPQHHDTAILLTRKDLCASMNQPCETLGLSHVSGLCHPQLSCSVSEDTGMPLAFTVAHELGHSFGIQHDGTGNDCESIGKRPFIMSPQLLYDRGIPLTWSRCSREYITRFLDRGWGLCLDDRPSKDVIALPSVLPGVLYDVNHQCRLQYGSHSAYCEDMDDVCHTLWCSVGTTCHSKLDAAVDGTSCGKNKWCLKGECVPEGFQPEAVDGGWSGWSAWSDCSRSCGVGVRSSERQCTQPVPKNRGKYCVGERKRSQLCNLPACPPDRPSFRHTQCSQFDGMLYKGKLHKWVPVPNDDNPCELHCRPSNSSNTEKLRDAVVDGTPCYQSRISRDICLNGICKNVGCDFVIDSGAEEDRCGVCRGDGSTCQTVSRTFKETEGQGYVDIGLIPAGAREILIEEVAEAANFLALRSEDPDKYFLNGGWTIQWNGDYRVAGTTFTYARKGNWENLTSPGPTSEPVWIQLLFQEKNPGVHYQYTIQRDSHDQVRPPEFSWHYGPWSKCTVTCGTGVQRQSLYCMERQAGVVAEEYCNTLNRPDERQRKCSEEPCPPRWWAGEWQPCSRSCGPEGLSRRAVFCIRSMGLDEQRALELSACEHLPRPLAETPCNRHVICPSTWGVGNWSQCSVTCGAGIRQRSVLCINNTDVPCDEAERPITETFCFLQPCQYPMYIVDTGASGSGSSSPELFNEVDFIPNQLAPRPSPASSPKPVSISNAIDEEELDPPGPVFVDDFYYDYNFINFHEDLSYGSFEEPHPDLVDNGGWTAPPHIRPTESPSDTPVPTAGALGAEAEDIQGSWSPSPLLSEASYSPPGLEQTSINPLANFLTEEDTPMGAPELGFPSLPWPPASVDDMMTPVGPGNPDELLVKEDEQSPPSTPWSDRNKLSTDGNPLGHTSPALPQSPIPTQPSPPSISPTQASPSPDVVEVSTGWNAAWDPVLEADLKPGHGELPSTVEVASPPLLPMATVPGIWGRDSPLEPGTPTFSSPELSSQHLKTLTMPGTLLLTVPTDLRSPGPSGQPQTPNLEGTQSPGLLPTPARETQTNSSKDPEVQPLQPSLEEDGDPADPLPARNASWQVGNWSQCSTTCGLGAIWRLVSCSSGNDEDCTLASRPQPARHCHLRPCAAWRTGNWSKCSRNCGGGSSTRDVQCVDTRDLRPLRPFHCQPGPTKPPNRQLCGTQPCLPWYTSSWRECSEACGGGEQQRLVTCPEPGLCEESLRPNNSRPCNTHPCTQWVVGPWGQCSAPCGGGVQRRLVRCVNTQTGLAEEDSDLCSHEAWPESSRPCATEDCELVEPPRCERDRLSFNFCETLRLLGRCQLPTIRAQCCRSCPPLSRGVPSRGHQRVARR
The assay is described as follows: TMT10 TAILS N-terminomics, SMC2 experiment (process replicates, trypsin/AspN digest). It counts as cell-based. As to conditions: SMC2_TAILS HC; log fold change, mWT over Luc. The method in brief: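 Full-length mouse ADAMTS7 (WT or E373Q mutant, C-terminal 3xFLAG) or luciferase was transduced via adenovirus, 50 MOI, into HCA-SMC (SMC1, SMC2) or HUVEC. SMC1: pooled media, technical triplicates 400 ug; SMC2: process triplicates 300 ug; HUVEC: process triplicates 200 ug, bFGF2 10 ng/ml.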
“ACTG1_105 (LTEAPLNPKANR; listed as Homo sapiens)” came in with a logFC.mWT.over.Luc of 1.80. As to “ACTN4_5 (HAANQSYQYGPSSAGNGAGGGGSMG; listed as Homo sapiens)”, the logFC.mWT.over.Luc is reported as 2.65. As to “ADAM9_74 (GKEHIIHLER; listed as Homo sapiens)”, the logFC.mWT.over.Luc is given as 4.13. Under “ADAM10_86 (FKVETSNKVL; listed as Homo sapiens)” stands 2.45; under “ADNP2_375 (SQPVGPVNK; listed as Homo sapiens)”, 5.35. With “AMER2_654 (LAGTTIRATACH; listed as Homo sapiens)”, the logFC.mWT.over.Luc is given as 0.95. Substance “APLP2_452 (LVETHLAR; listed as Homo sapiens)” yielded a logFC.mWT.over.Luc of 2.70. “APOA1_86 (EQLGPVTQEFW; listed as Homo sapiens)” displayed a logFC.mWT.over.Luc of 1.80. The substance “BMPER_43 (LTGSVAKCENEG; listed as Homo sapiens)” registered a logFC.mWT.over.Luc of 2.37. As for “CALU_176 (FTAFLHPEEY; listed as Homo sapiens)”, the logFC.mWT.over.Luc is listed as 2.37.

Regarding “CAP1_300 (FSAPKPQTSPSPKR; listed as Homo sapiens)”, the logFC.mWT.over.Luc is on record as 2.91. In the case of “CCL2_28 (INAPVTCCYNFTNR; listed as Homo sapiens)”, the logFC.mWT.over.Luc came out at 1.35. As for “CEP192_728 (DKSTAGR; listed as Homo sapiens)”, the figure is 2.33; as for “CTSB_109 (WAFGAVEAIS; listed as Homo sapiens)”, 1.65. “DBN1_434 (APVEPATA; listed as Homo sapiens)” had a logFC.mWT.over.Luc of 1.61. Turning to “DIS3L_75 (FPELKGIIFMQTACQAVQHQR; listed as Homo sapiens)”, the logFC.mWT.over.Luc is reported as 1.77. “ECM1_38 (FQEVGYAAPPSPPLSR; listed as Homo sapiens)” gave a logFC.mWT.over.Luc of 1.54.

The substance “ECM1_44 (AAPPSPPLSR; listed as Homo sapiens)” displayed a logFC.mWT.over.Luc of 2.25. “ECM1_108 (QEAVPLQK; listed as Homo sapiens)” came in with a logFC.mWT.over.Luc of 3.12.

Consider “EEF1G_23 (QYSGAQVR; listed as Homo sapiens)”, for which the logFC.mWT.over.Luc is 3.18. In the case of “EIF4B_426 (QTGTSTTSSR; listed as Homo sapiens)”, the logFC.mWT.over.Luc is on record as 5.61. Turning to “EMSY_943 (QTVVQVLAVK; listed as Homo sapiens)”, the logFC.mWT.over.Luc is on record as 1.13. Substance “FBLN2_665 (FSQVASNTIPLPLPQPNTCK; listed as Homo sapiens)” yielded a logFC.mWT.over.Luc of 1.74. Regarding “FLNA_689 (VNKPAEFTV; listed as Homo sapiens)”, the logFC.mWT.over.Luc worked out at 4.67. As for “FLNC_2649 (FVGQKNSFTV; listed as Homo sapiens)”, the figure is 3.91; as for “FN1_35 ([code q]MVQPQSPVAVSQSKPGCY; not fully specified (residue 2); listed as Homo sapiens)”, 1.99. Turning to “FN1_99 (DKYTGNTYR; listed as Homo sapiens)”, the logFC.mWT.over.Luc came to 1.35.

The substance “FN1_607 (SSSGPVEVFIT; listed as Homo sapiens)” came in with a logFC.mWT.over.Luc of 1.08.

In turn, “FN1_1693 (LQPTVEYVVSVYAQNPSG; listed as Homo sapiens)” yielded a logFC.mWT.over.Luc of 1.99. The substance “FN1_1780 (LQGLRPGSEYTVSVVALH; listed as Homo sapiens)” displayed a logFC.mWT.over.Luc of 1.67. As to “FN1_1805 (LIGTQSTAIPAPT; listed as Homo sapiens)”, the logFC.mWT.over.Luc is 2.43. Under “FN1_2113 (FVTHPGY; listed as Homo sapiens)” stands 1.38; under “FOXG1_235 (LNKCFVKVPRHY; listed as Homo sapiens)”, 3.42; under “FSTL_1290 (LQKHQETA; listed as Homo sapiens)”, 2.58.
